Test results from patent US20260258115A1 (MAPP BIOPHARMACEUTICAL, published 2026).

How the values were obtained:
[1] = molecular target: RSV prefusion F (preF), DS-Cav1 (respiratory syncytial virus, UniProt P03420 26-513); experiment: BLI, IgG on sensor, 100 nM antigen
[2] = molecular target: RSV postfusion F (postF), F deltaFP (respiratory syncytial virus, UniProt P03420 26-513); experiment: BLI, IgG on sensor, 100 nM antigen
[3] = molecular target: RSV fusion glycoprotein (RSV F) on RSV-A2 virus (respiratory syncytial virus, UniProt P03420 26-574); experiment: cell-based or functional assay

Binder | Kd [1] [nM] | Kd [2] [nM] | Neutralization IC50 (RSV subtype A) [3] [µg/mL]
ADI-41375 (antibody, V domains shown, IgG1) VH: QVQLVQSGGGVVQPGRSLRLSCATSGFTFSDYAIHWVRQAPGKGLEWVAVISYDGSHKYYGDSVKGRFTISRDNSKNTLYLQMNSLRPEDTAVYYCARSRSGSYYSSAIDNWGQGTLVTVSS VL: DIQMTQSPSSLSASVGDRVTIACRASQGISSALAWYRQRPGKAPELLIYDASTLESGVPSRFSGYGAGTDFTLTISSLQPEDFATYYCQQFNSYPSITFGQGTKVEIK | 2.96 | 1.02 | > 25
ADI-41384 (antibody, V domains shown, IgG1; also called Ab 680) VH: QVQLVQSGAEVKKPGSSVRVSCKASGGTFSRYAISWVRQAPGQGLEWMGGVIPRFDKTNYAQKFQGRVMITADKSTSTAYMELSSLRSDDTAVYYCAGDRLDTKITHTWYGFGDFWGQGTTVTVSS VL: EIVLTQSPGTLSLSPGERATLSCRASQSVTSNFLAWYQQRPGQAPRLLIYGASVRAIDIPDRFSGSGSGTDFTLTISRLEPEDFAVYYCQQYGDPFRTFGQGTKVEIK | 3.45 | 0.563 | > 25
ADI-41369 (antibody, V domains shown, IgG1; also called Ab 666) VH: EVQLVQSGGGVVQPGRSLRLSCAASGFTFSSYGMHWVRQAPGKGLEWVAVISHDGNNKYYGDSVKGRFTISRDNSKNTLHLQMNSLRGDDTAVYYCGKDPLKGDCSGGSCYQRIDYWGQGTLVTVSS VL: NFMLTQPHSVSESPGKTVTISCTGSSGRIASNYVQWYQQRPGSAPATVIYDDNQRPSGVPDRFSGSIDSSSNSASLTISGLKTEDEADYYCQSYDRSNHVIFGGGTKLTVL | 0.685 | 0.308 | > 25
ADI-41389 (antibody, V domains shown, IgG1; also called Ab 683) VH: EVQLVESGGGVVQPGRSLRLSCAASGFTFSNYAIHWVRQAPGKGLEWVAAISYDGGNKFYADSVKGRFTISRDNSRNTLYLQMNSLRPEDTAVYYCARDRWELNYGIDVWGQGTTVTVSS VL: SYELMQPPSVSVSPGQTARITCSGDALPKQYAYWYQQKPGQAPVLVIYKDSERPSGIPERFSGSTSGTTVTLTISGVQAEDEADYYCQSADSSSTFFYVFGTGTKLTVL | 2.58 | 0.513 | > 25
ADI-41367 (antibody, V domains shown, IgG1) VH: QVQLVQSGAAVKRPGASVKVSCKASGYTFSTNALHWVRQAPGQSLEWMGWINTDNGIPKYSERFHGRVTFTRDTSASTVYMDLSGLRSGDTAVYYCARDGSSGHWLGLSVLDNWGQGTLVTVSS VL: QSALIQPASVSGSPGQSITISCTGTSDDVGAYNYVSWYQQYPNKAPKLVIYEVSHRPSGVSNRFSGSKSGNTASLTISGLQAEDEADYYCSSYTRSATPYVFGTGTKLTVL | 17.6 | 4.72 | > 25
ADI-41365 (antibody, V domains shown, IgG1) VH: EVQLVESGGGLVKPGGSLRLSCATSGFTFSDYYMTWIRQAPGKGLEWVSYISSSGGYTNYADSVRGRFTISRDNAKRSLYLQMNSLRAEDTAVYYCARVEFSSGDVPSLFDSWGQGTLVTVSS VL: QSVLTQPPSVSGAPGQRVTISCTGSSSNLGAGYHVHWYQQFPGTAPKPLIYGNTNRPSGVPDRFSGSKSGTSASLAITGVQAEDEADYYCQSYDYSLSGWVFGGGTKLTVL | 2.87 | 2.22 | > 25
ADI-41373 (antibody, V domains shown, IgG1; also called Ab 670) VH: QVTLKESGGGLVKPGGSLRLSCAASGFTFSDYFMTWIRQAPGKGLEWVSYISSNSGYTKYAEDVKGRFSISRDNAKKTLFLQLNSLSAEDTAVYYCARVEFSSGDVPSLFDLWGQGTLVTVSS VL: QSVLTQPPSVSGAPGQRVTISCTGSSSNIGAGYHVHWYQQLPGTAPKVLIHGNNNRPSGVPDRFSGSRSGTSASLAITGLQAEDEADYYCQSYDFSLSGWVFGGGTKLTVL | 3.71 | 1.18 | > 25
ADI-41374 (antibody, V domains shown, IgG1; also called Ab 671) VH: QVQLVQSGAEVKKPGSSVKVSCKASGGTFSNHAIDWVRQAPGQGLEWMGRIIPMVGLATYTRKFQGRVTISVDKSTSTAYMELSSLISDDTAVYYCARRTPEMAWGYWGQGTTVTVSS VL: DIVMTQTPSSLSASVGDRVTITCQASQDIRYYVNWYQQKPGKAPKLLIYDASTLETGVPSRFSGRGSGTDFTLIISSLQPEDIATYYCQQYGDLPTFGQGTRLEIK | 1.39 | 0.369 | > 25
ADI-41370 (antibody, V domains shown, IgG1; also called Ab 667) VH: EVQLVESGGGLVKPGGSLRLSCAASGFTFSGFSMNWVRQAPGKGLEWVSSISSTSRYIYYADSVQGRFTISRDNAKNSLYLQMNSLRAEDTAVYYCARDPGGSASFVPYYYGMDVWGQGATVTVSS VL: SYELIQPPSVSVSPGQTARITCSGDALPNQYVYWYQKKPGQAPVLVIYKDTEGPLGIPERFSGSSSGTTVTLTISGVQAEDEADYYCQSADSSGTYPYVVFGGGTKLTVL | 5.59 | 1.64 | > 25
ADI-41372 (antibody, V domains shown, IgG1; also called Ab 669) VH: QVQLVQSGAEVKKPGSSVKVSCKASGGISSSYAISWVRQAPGQGLEWMGGIIPIFGTTNYAQKFQGRVTITADKSTSTVYMELSSLRSEDSAVYFCARAYCSGGTCYGGADYWGQGTLVTVSS VL: SYELTQPPSVSVSPGQTARITCSGDVLPKQYAYWYQQKLGQAPLLVMYKDTERPSGIPERFSGSSSVTAVTLTISGVQAEDEADYYCQSADSTQELFGGGTKLTVL | 2.48 | 0.425 | > 25
ADI-41376 (antibody, V domains shown, IgG1; also called Ab 673) VH: QVQLQESGGGVVQPGRSLRLSCAASGFTFSSYAMHWVRQAPGKGLEWVAVISFDGTANKYYADSVKGRFAISRDNSKNTLYLQMNSLRAEDTAVYYCAKDDAIYSGGWVGDAFDLWGQGTMVTVSS VL: EIVLTQSPATLSVSPGERATLSCRASQGVNSNLAWYQQKPGQAPRLLMYGASTRATGIPARFSGSGSETEFTLTISSLQSEDFAVYYCQQYNNWPRTFGQGTKVDIK | 4.15 | 0.705 | > 25
ADI-41366 (antibody, V domains shown, IgG1) VH: QVQLVQSGAEVKKPGESLKISCKASGYSSTTYWIGWVRQISGKGLEWMGIIYPGDSDTRYSPSFQGQVTISADRSTKTAYLQWSSLKASDTAMYYCGTSGFGVATPFDYWGQGTLVTVSS VL: NFMLTQPHSVSESPGKTVTISCTRTSGSIAGNYVHWYQQRPGSAPTTVIYEDNQRPSGVPDRFSGSIDRSSNSASLTISGLKTEDEADYYCQSYASGIHGVFGGGTKVTVL | 1.79 | 0.278 | > 25
ADI-41385 (antibody, V domains shown, IgG1; also called Ab 681) VH: EVQLVESGGGVVQPGRSLRLSCAASGFTFSSYGMHWVRQAPGKGLEWVAVIWYDGNNEKYADSVKGRFTISRDNSKNTLYLQMNSLRAEDTAVYYCARPTQKYSSSWYWEDSIDYWGQGTLVTVSS VL: QSVLTQPPSVFGAPGQRVTISCTGSSSNIGAGYPVHWYQQLPGTAPKLLIYGNSNRPSGVPDRFSGSKSGTSASLAITGLQAEDEADYYCQSYDSSLSGGVVFGGGTKLTVL | 4.52 | 0.601 | > 25
ADI-41392 (antibody, V domains shown, IgG1) VH: EVQLVESGGGVVQPGGSLRLSCAASGFEFRDYAMHWVRQAPGKGLEWVALISYDGSKIHYADSVQGRFSISRDNSKNSLYLQMNSLRSEDSAKYYCVQDHWLVPAFWGQGAQVTVSS VL: QPVLTQPASVSGSPGQWITISCTGTSSDIGYYDYVSWYQQYPGKAPKLIIYEVSHRPSGVSNRFSGSKSGNTASLSISGLQAEDEADYYCSSYTTSNAGVFGTGTKLTVL | 0.329 | 0.359 | 0.18
ADI-41381 (antibody, V domains shown, IgG1; also called Ab 678) VH: QVQLQESGPGLVKPSQTLSLTCTVSGDSISGGEHYWSWIRQPPGKGLEWIGSIYYSGTTYYNPSLKSRLTVSVDTFKNQFSLMLSYVTAADTAVYYCARDASPAYHDYIWGSCRYFDKWGQGTLVTVSS VL: EIVLTQSPGTLSLSPGERATLSCRASQSVSSNYLAWYQQKPGQAPRILIHGASSRATGIPDRFSGSGSGTDFTLTVSRLEPEDFAVYYCQQYGSTPYTFGQGTKVEIK | 2.6 | 1.34 | > 25
ADI-41371 (antibody, V domains shown, IgG1; also called Ab 668) VH: QVQLQESGPRLVKPSQTLSLTCTVSGGSITTGEHYWSWIRQSPGRGLEWIGYISYSGSTYYNPSLKSRVTISVDTSKTRISLNLRSVTAADSAVYYCARDQEDSDYIWGSSRVFDIWGQGTMVTVSS VL: ETTLTQSPGTLSLSPGERATLSCRASQNVGNNYLAWYQQKPGQAPRVLIQDASTRATGIPDRFSGSGSGTDFTLTISRLEPEDFAVYHCQQYGSAPWTFGQGTKVEIK | 2.96 | 0.543 | > 25
ADI-41391 (antibody, V domains shown, IgG1) VH: EVQLLESGPGLVKPSETLSLTCTVSGGSISGYYWSWIRQPPGKGLEWIGYIYHSGGSTNYNPSLKSRVTISVDTSKNQFSLKVSSVTAADTAVYYCARLARVVTTFDFWGQGALVTVSS VL: QPVLTQPASVSGSPGQSITISCTGTSSDVGGYNYVSWYQQKPGTAPKLMIFDVSNRPSGVSNRFSGSKSDNTASLTISGLQAEDEADYYCSSYTSSTNLVFGGGTKLTVL | 0.882 | 0.479 | > 25
ADI-41368 (antibody, V domains shown, IgG1; also called Ab 665) VH: EVQLVESGGGVVQPGRSLRLSCAASGFIFRNYGMHWVRQAPGKGLEWVAGTSFEGRNKDYGHSVKGRFTISRDNSKDTLYLQMNSLRPEDTAVYSCAKGSSLQWSHLDWYFDLWGRGTLVTVSS VL: DIVMTQSPSTLSASVGDRVTITCRASQSFSSWLAWYQQKPGKAPNLLIYDASTLESGVPSRFSGSGSGTEFTLTISSLQPDDFATYYCQQERTFGQGTKVEIK | 3.08 | 0.878 | > 25
ADI-41378 (antibody, V domains shown, IgG1) VH: EVQLVESGPGLVKPSGTLSLTCAVSGDSISSSNWWSWVRQPPGKGLEWIGEVSHSGNTDYNPSLKSRVTISVDKSKNQFSLKLSSVTAADTAVYYCARPSPCSGGSCYWFFDLWGRGTLVTVSS VL: DIRLTQSPSSLSASVGDRVTITCRASQTINAYLNWYQQRPGKAPNLLIYAASSLQSGVPSRFSGSGSGTDFTLTISSLQPEDFATYYCQQSYKTAYTFGQGTKVEIK | 2.98 | 0.739 | > 25
